Measurements taken from publication PMC3086721 (Biochemical and biophysical research communications, 2011).
Like-named read-outs stand apart in the source and are kept apart here.

B1: E2-25K UBA domain (residues G154-N200) (domain or fragment, UniProt P61086 154-200, looked up)
chain: GAPVSSPEYTKKIENLCAMGFDRNAVIVALSSKSWDVETATELLLSN
B2: Full-length E2-25K (enzyme, UniProt P61086 1-200, looked up)
chain: MANIAVQRIKREFKEVLKSEETSKNQIKVDLVDENFTELRGEIAGPPDTPYEGGRYQLEIKIPETYPFNPPKVRFITKIWHPNISSVTGAICLDILKDQWAAAMTLRTVLLSLQALLAAAEPDDPQDAVVANQYKQNPEMFKQTARLWAHVYAGAPVSSPEYTKKIENLCAMGFDRNAVIVALSSKSWDVETATELLLSN

How the values were obtained:
Wild-type ubiquitin [1] = target: T1, Wild-type ubiquitin (UniProt P0CG48 1-76); test: NMR titration
Wild-type ubiquitin [2] = target: T1, Wild-type ubiquitin; test: NMR titration; remark: listed apart in the source

Binder | Kd (Wild-type ubiquitin [1]) | Kd (Wild-type ubiquitin [2])
B1 | ~1200 µM | –
B2 | – | ~1000 µM
